Measured values: the nanobody polyreactivity screen of Harvey et al. (2022)

Experiment: yeast display, Sf9 membrane polyspecificity reagent, FACS + sequencing; frameworks hold sequencing errors
How it was run: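 Galactose induction of a Saccharomyces cerevisiae BJ5465 synthetic nanobody display library ran 36–48 hours. The cells were then stained for 1 hour at 4 °C with 10% biotinylated, detergent-solubilized Sf9 membrane reagent, pulled down on streptavidin microbeads and FACS-sorted into low and high (top ~1%) gates on expression and reagent-binding fluorescence. Labels for polyreactivity follow the gate of origin.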

Row | Sequence | polyreactivity (PSR sort gate)
1 | QVQLVESRGGLVQAGVSLRLSCASSGRIVGWYAMGWYIQAPGKERELVAVITWSDGRTYYADSVKGRFTISRDNAKNTVYLQMNSLKPEDTAVFYCAAADWITEYDYWGQGTQVTVSS | low polyreactivity
2 | QVQLVESRGGLVQAGVSLRLSCSASGSIFPYYAMGWYRQAPGKEREFVASISSVTSTYADSVKGRFTISRDNAKNTVYFQMYILIPEDTAVYYFAADRAYSWYSVSRNNYWGPGTQVTVSS | low polyreactivity
3 | QVQLVESRGRLVQAGGSLRLSCAASGFSFVINDMGRYRQAPGKERELVADITSGGDTYYADSVKGRFTISRDNAKNTVYLQKNSLKPEDTAVYYCAADIYRDLIYLLYGYWGQGTQVTVSS | low polyreactivity
4 | QVQLVESRGVLVQAGGSLRLSCAASGRTFYFYVKGWYIQEPGKERELVARISYSDGSTYYADSVKGRFTISRDNAKNTVYLQMNSLKPEDTAVYYCNAYDPYFGRRYDYWGQGTQVTVSS | low polyreactivity
5 | QVQLVESRGVLVQAGGSLRLSCAASGSNFYVYAMGWYRPAPGKERELVAGISWSADSTYYADSVKGRFTISRDNAKYTVYLQMNSLKPEDSAVYYCATDRYPTRRYDYWGQGTQVTVSS | low polyreactivity
6 | QVQLVESRVGLVQAGGSLRLSCAASGITLYYYALGWYRHAPGKEREFVAAITWRGTTTYYADSVKGPFTISRDNAKNTVYLQMNSLKPEDTALYYCAAEHEQRVADYYYWGQGTQVTVSS | low polyreactivity
7 | QVQLVESSGGLVQAGGSLRLRCAASGMISEYNAMGWSRQAPGKERELVAAITWNGGSTFYADSVKGRFTISRDNAKNTVYLQMNSLKPEDTAVYYCNKTRLEPEYGYWGQGTQVTVSS | low polyreactivity
8 | QVQLVESVGALVQAGGSLRLSCAASGSTFRRNAMGWYRQAPGKERELVATITTRGGSTYYADSVKGRFTLSRDNAKNTVNLQMNSLKPEDTAVYYCAADRRSGYSRSKYGRGDYWGQGTQVTVSS | high polyreactivity
9 | QVQLVESVGCLVQAGGSHRLSCAASVFIFGANAMGWYRQAPGKESELVAAIRWSSGTTYYADSVKGRFTISRDNAKNTVYLQINSLKPEDTAVYYCAAGGLARTWYAYYYWGQGTQVTVSS | low polyreactivity
10 | QVQLVESVGGIVQAGGSLRLSCAASGGICYEYAMGWYRQAPGKERELVATISFNVASTYADSVKGRFTISRDNAKNTVYLQMNSLKPEDTAVDYCIADTYWDRDSRYDYWGLGTQVTVSS | low polyreactivity
11 | QVQLVESVGGIVQAGGSLRLSCAASGRTFTYNVMGWYRQAPGKEMELVAAITSGGSNYADSVKGRFTISRDNAKNTVYLQMNSLTPEDTAGYYCATDYYEDVTIGYDYWGQGTQVTVSS | low polyreactivity
12 | QVQLVESVGGLDQAGGSLRLSCAASGSTFRYYVMGWYRQAPGKERELVAGITRGGSTNYADSVKGRFTISRENAKNTVYLQMNSLKPEDTAVYYCASRGGWKRPFGYQLQYDYWGQGTQLTVSS | high polyreactivity
13 | QVQLVESVGGLDQAGGSLRLSGAASGIIFEGNALGWYRQAPGKERELVAAITSRGTRTYYADSVKGRFTISRDHAKNTVYLQMNSLKPEDTAVYYCAKLTSVTGKSGRYGYEYWGQGTQVTVSS | high polyreactivity
14 | QVQLVESVGGLVQAGASLRLSCAPSGSTFPVYAMGWYRPAPGKESELVARISSGSSTNYADSVKGRFTISRDNAKITVYLQMNSLKPEDTAVYYCAAQTPRFVWQKGPLDSEDYWGQGTQVTVSS | high polyreactivity
15 | QVQLVESVGGLVQAGGILRLSCAPSGSTSYGNAMGWYRQAPAKVRELVAAISSSGSSTYYADSVKGRFTISRDNAKNTVYLQMNSLKPEDTAVYYCNKRRSHSYYSRRFDYWGQGTQVTVSS | high polyreactivity
16 | QVQLVESVGGLVQAGGSHRLSCAASGRTFYQYTMGWSRQAPGTERELVAAITTSTGNTYYADSVKVRFTISRDNAKNTVYLQMNRLKPADTAVYECAADTVWPLDYWGLGTQVTVSS | low polyreactivity
17 | QVQLVESVGGLVQAGGSIRLSCAASGRIIDVNAMGWYRQAPGKERELVAAIRSGGRTNYADSVKGRFTISRDNAKNTVYLQMNSLKPEDTAVYYCGAVVWSSLDDYWGQGTQVTVSS | high polyreactivity
18 | QVQLVESVGGLVQAGGSLPLSCAASGLTFPSYAMGWYRQAPGKERELVAAISASGSSTYYADSVKGRFTISRDNAKNTVYLQMNSLKPEDTAVYYCNARKPATVSRYGYWGQGTQVTVSS | high polyreactivity
19 | QVQLVESVGGLVQAGGSLRISCAASGRIFSGNAMGWYRQAPGKERELVASISRSGGRTRYADSVKGRFTISRDNAKNTVYLQMNSLKPEDTAVYYFTALSTQSYYFTYAGYDYWGQGTQVTVSS | high polyreactivity
20 | QVQLVESVGGLVQAGGSLRISCAASGSIFAVYAMGWYRQAPGKESELVAAITSSGGRTYYADSVKGRFTISRDNAKNTVYFQMNSLKPEDTAVYYSATRGDTRWGLDYWGQATQVTVSS | high polyreactivity
21 | QVQLVESVGGLVQAGGSLRISSAASGRIFTGNGMGWYRQAPGKERELVASITYNGGRTYYADSVKGRFTISRDNAKNTVYLQINSLKPEDTSVYYCNAGDYGFRYEYWGQGTQVTVSS | low polyreactivity

Row | Sequence | polyreactivity (PSR sort gate)
22 | QVQLVESVGGLVQAGGSLRLICAASGFTFRRNAIGWYRQAPGKERELVAAITRSGGITYYADSVKGRFTISRDNAKNTVYLQMNSLKPEDTAVYYCNKQVTGAERFQGHGAYYWGQGTQVTVSS | high polyreactivity
23 | QVQLVESVGGLVQAGGSLRLICAASGSTFTWYAIGWNRQAPGKERELVADITWRDGSTYYADSVKGRFTISRDNAKNTVYLQMNSLKPEDTAVYYCAADYTYWGIFFGYWGQGTQVTVSS | high polyreactivity
24 | QVQLVESVGGLVQAGGSLRLICDASGFTFYAYAIGWYRQAPGKERELVAAITYIGSTYYADSVKGRFTISRDNAKNTVYLQMNSLKPEETAVYYCAVEFLPSFNRYDYWGQGTQVTVSS | low polyreactivity
25 | QVQLVESVGGLVQAGGSLRLRCGASGSIFYIYAMGWYRHAPGNERELVAAITRRAATYADSVKGRFTISRDNAKKTGYLQMNSLKPEDTAVYYCNADVQRLGRYDYWGQGTQVTVSS | high polyreactivity
26 | QVQLVESVGGLVQAGGSLRLSCAASARIFRYYAMGWDRQAPGKERELVAAITWNGGSTYYADSVKGRFTISRDNAKNTVYVQLNSLKPEDTAVYYCAAVSYYTHYRLPYDYWGQGTQVTVSS | high polyreactivity
27 | QVQLVESVGGLVQAGGSLRLSCAASGFIFRGYALGWYRQARGKEWELVAAMNAGDSTNYADSVKGRFTISRDTAKNTVYLQMNSLKPEETAVYYCAASIYAALNGGPGYDYWGQGTQVTVSS | low polyreactivity
28 | QVQLVESVGGLVQAGGSLRLSCAASGFIFSVYAMGWNRQAPGKERELVAVISTSGGRTYYADSVKGRFTISRDNAKNTVYLQMNSLKPEDTAVDYCAADGFQYTLGNYYWGQGTQVTLSS | high polyreactivity
29 | QVQLVESVGGLVQAGGSLRLSCAASGFIFTLYTMGWYRHAPGKERELVADIDKNGSTYYADSVKGRFTISRDNAKITVYLRMYSLKPEDTAFYYCAADDRYRGNREDYWGQGTQVTVSS | low polyreactivity
30 | QVQLVESVGGLVQAGGSLRLSCAASGFTFGPYAMGWYRQSPGKERELVAPIDDSGGNTYYADSVKGRFTISRDNAKNTVYLQMNSLKQEDTAVYYCNAFGADYYHVYPAEDYWGQGNQVTVSS | low polyreactivity
31 | QVQLVESVGGLVQAGGSLRLSCAASGFTFPWNVMGRYRQAPGKERELVAAITYDGGGTYADSVKGRFTISRDNAKNTVYLQMNSLKPEDTAVYYCNADLINGEEYDYWGQGTQVTVSS | low polyreactivity
32 | QVQLVESVGGLVQAGGSLRLSCAASGFTFTRYAMGWYRQAPGKERELVAAISSGGDTYYADSVKGRFTISRDNAKNTVYLQMNSLKPEDTAVYYCAADQSSLDYGNDYWGQGTQVTVSS | low polyreactivity
33 | QVQLVESVGGLVQAGGSLRLSCAASGGIFNTYAMGWYRQAPGKEREFVAANSRRGGGTYYADSVKGRFTISRDNAKNTVYLQMNSLKPEDTAVYYCNADVKRGSRGYGSDHWGQGTQVTVSS | high polyreactivity
34 | QVQLVESVGGLVQAGGSLRLSCAASGGIFYKYAMGWYRQAPGNERELVAAITGRGGSTNYADSVKGRFTISRDNSKNTVYLQMNSLKPEDNAVYYCAADLRLYSSQDNDYWGQGTQVTVSS | low polyreactivity
35 | QVQLVESVGGLVQAGGSLRLSCAASGIIFARYAMGWYRQAPGKERELVASISWSTGNTYYADSVKGRFTISRDNAKNTVYLQMNSLKPEDTAVYYCAATYRRKYWTMDYWGQGTQVTVSS | high polyreactivity
36 | QVQLVESVGGLVQAGGSLRLSCAASGITFFGNAMGWYRQAPGKERELVASISNGDNTNYADSVKGRFTISRDNAKNTVYLQMNSLKPEDTAVYYCAAWLAYSSRYGYWGQGTQVSVSS | low polyreactivity
37 | QVQLVESVGGLVQAGGSLRLSCAASGITLYGYAMGWYRQAPGKERELVAAISWRGGRTYYADSVKGRFTISRDNAKNTVYVQMNSLKPEDTAVYYCLARSYYNWYDYWGQGTQVTVSS | high polyreactivity
38 | QVQLVESVGGLVQAGGSLRLSCAASGLIFPWYAMGWYRQAPGKERELVAAIRWRGGGTYYADSVKGRFTISRDNAKNTVYLQMNSLKPEDTAVYYCAARRPAKGMGYWGQGTQVTVSS | high polyreactivity
39 | QVQLVESVGGLVQAGGSLRLSCAASGNIFSSYAMGWYRQAPGKERELVARITTSAGRTYDADSVKGRFTISRDNAKNTVDLQMNSLKPEDTPVYYCAVDWYGSYGYGGSQNSDYWGQGTQVTVSS | high polyreactivity
40 | QVQLVESVGGLVQAGGSLRLSCAASGNTFRRNVMGLYRQAPGKERELVAAINRGGSTYYADSVKGRFTISRDNAKNTVYLQMNSLKPEDTAVYYCNAVTRGYYHEMEYWGQGTQVTVSS | high polyreactivity
41 | QVQLVESVGGLVQAGGSLRLSCAASGRIFDSYTMGWYRQAPGKERELVAAISRGGGSTYYADSVKGRFTISRDNAKYTVYLQMNSLKPEDTAVYYCAASSYLNSRFKFDYWGQGTQVTVSS | low polyreactivity
